Target: human insulin receptor fused with Renilla luciferase 8 (human) (UniProt P06213)

- EC50 of insulin for the insulin-induced BRET increase between hIR–Rluc8 and Grb2–Venus (m1 + m3), live HEK293 cells, insulin 0.001-10,000 nM: 4.4 nM
- EC50 of insulin for the insulin-induced BRET increase between hIR–Rluc8 and IRS1–YFP (m1 + m2), live HEK293 cells, insulin 0.001-10,000 nM: 2.2 nM
Substance: bovine insulin (ligand)
